# Test results reported in publication PMC5472717.
# Columns and labels:
# [1] = test system: Zur (zinc uptake regulator) (Streptomyces coelicolor A3(2) M145?); experiment: EMSA; conditions: 5 uM ZnSO4; 20 mM Tris-HCl pH 7.8, 50 mM KCl, 1 mM DTT, 0.1 mg/ml BSA, 5% glycerol, 0.1 ug poly(dI-dC) per 20 ul, 0-20 uM ZnSO4, room temperature 20 min; gel 5% PAGE in TB …
# [2] = target: Zur (zinc uptake regulator) of Streptomyces coelicolor (Streptomyces coelicolor); experiment: native gel or EMSA; EMSA of purified Zur (0-90 nM) on 32P-labelled znuA and zitB DNA probes (25, 33, 46, 114 bp) with 0-20 uM ZnSO4; 20 mM Tris-HCl pH 7.8, 50 mM KCl, 1 mM DTT, room temperature; the number of Zur chains in each shifted band was estimated from mobility on native PAGE at different acrylamide percentages; Zur oligomers seen only on DNA
stoichiometry N [2],Substance,Kd [1] [nM]
–,GCACATGACAACGGTGTTCAGTGCC (double strand) [zitB 25 bp Zur-box probe (-63 to -39)],19.3
2,Zur (zinc uptake regulator) of Streptomyces coelicolor (natural protein),–
